Source: PMC9095878
“And” between values parts separate entries of the source, which are not always exact repeats. Equal values may be shown once.

Biological target: N-terminal domain of mouse gasdermin-A3 released by TEV cleavage (mGSDMA3^Nterm) (mouse) (UniProt Q5Y4Y6)
Test: atomic force microscopy; supported lipid membranes (E. coli polar lipid extract) on mica incubated 3 h at 37 °C with 1.5 µM mGSDMA3 pre-cleaved with 0.4 µM TEV, rinsed, imaged by contact mode or FD-based AFM at room temperature in 50 mM NaCl, 0.1 mM EDTA, 0.1 mM TCEP, 20 mM Hepes, pH 7.4; subunits of ring-shaped oligomers counted from rotational power spectra

- stoichiometry N: 18 to 36 (2×) and 30
Substance: N-terminal domain of mouse gasdermin-A3 released by TEV cleavage (mGSDMA3^Nterm) (from UniProt Q5Y4Y6 1-237) (domain or fragment)
